Consider seven molecules from US20190338009A1 (ZEALAND PHARMA A S, published 2019).

The labels stand for the following.
T1: human GLP-2 receptor (hGLP2-R) (human, UniProt O95838 1-553)
T1 sequence (looked up): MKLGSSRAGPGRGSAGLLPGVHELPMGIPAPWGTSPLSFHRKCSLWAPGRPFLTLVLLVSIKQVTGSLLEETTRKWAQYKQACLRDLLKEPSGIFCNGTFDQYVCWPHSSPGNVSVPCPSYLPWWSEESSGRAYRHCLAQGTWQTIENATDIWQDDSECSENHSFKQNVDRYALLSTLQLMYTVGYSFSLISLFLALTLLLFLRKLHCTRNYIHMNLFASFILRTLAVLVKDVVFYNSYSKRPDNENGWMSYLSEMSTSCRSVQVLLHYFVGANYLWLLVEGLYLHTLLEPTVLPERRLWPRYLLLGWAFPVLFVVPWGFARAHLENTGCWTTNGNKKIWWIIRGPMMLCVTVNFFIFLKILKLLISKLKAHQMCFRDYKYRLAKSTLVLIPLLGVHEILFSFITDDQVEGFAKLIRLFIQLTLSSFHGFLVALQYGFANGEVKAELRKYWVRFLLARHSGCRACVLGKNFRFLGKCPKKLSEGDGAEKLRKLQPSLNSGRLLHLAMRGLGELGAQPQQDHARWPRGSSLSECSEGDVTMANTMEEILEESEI

B1: Compound 40 (peptide)
peptide: H-HGEGSFSSELATILDEQAARDFIAWLIQHKITD-NH2
B2: Compound 41 (peptide)
peptide: H-H[Aib]EGSFSSELATILDEQAARDFIAWLIQHKITD-OH
SMILES: CC[C@H](C)[C@H](NC(=O)[C@H](Cc1ccccc1)NC(=O)[C@H](CC(=O)O)NC(=O)[C@H](CCCNC(=N)N)NC(=O)[C@H](C)NC(=O)[C@H](C)NC(=O)[C@H](CCC(N)=O)NC(=O)[C@H](CCC(=O)O)NC(=O)[C@H](CC(=O)O)NC(=O)[C@H](CC(C)C)NC(=O)[C@@H](NC(=O)[C@@H](NC(=O)[C@H](C)NC(=O)[C@H](CC(C)C)NC(=O)[C@H](CCC(=O)O)NC(=O)[C@H](CO)NC(=O)[C@H](CO)NC(=O)[C@H](Cc1ccccc1)NC(=O)[C@H](CO)NC(=O)CNC(=O)[C@H](CCC(=O)O)NC(=O)C(C)(C)NC(=O)[C@@H](N)Cc1c[nH]cn1)[C@@H](C)O)[C@@H](C)CC)C(=O)N[C@@H](C)C(=O)N[C@@H](Cc1c[nH]c2ccccc12)C(=O)N[C@@H](CC(C)C)C(=O)N[C@H](C(=O)N[C@@H](CCC(N)=O)C(=O)N[C@@H](Cc1c[nH]cn1)C(=O)N[C@@H](CCCCN)C(=O)N[C@H](C(=O)N[C@H](C(=O)N[C@@H](CC(=O)O)C(=O)O)[C@@H](C)O)[C@@H](C)CC)[C@@H](C)CC
B3: Compound 38 (peptide)
peptide: H-HGEGTFTSELATILDEQAARDFIAWLIAHKITD-OH
B4: Compound 36 (peptide)
peptide: H-H[Aib]EGTFTSELATILDEQAARDFINWLKSYKITD-OH
SMILES: CC[C@H](C)[C@H](NC(=O)[C@H](Cc1ccccc1)NC(=O)[C@H](CC(=O)O)NC(=O)[C@H](CCCNC(=N)N)NC(=O)[C@H](C)NC(=O)[C@H](C)NC(=O)[C@H](CCC(N)=O)NC(=O)[C@H](CCC(=O)O)NC(=O)[C@H](CC(=O)O)NC(=O)[C@H](CC(C)C)NC(=O)[C@@H](NC(=O)[C@@H](NC(=O)[C@H](C)NC(=O)[C@H](CC(C)C)NC(=O)[C@H](CCC(=O)O)NC(=O)[C@H](CO)NC(=O)[C@@H](NC(=O)[C@H](Cc1ccccc1)NC(=O)[C@@H](NC(=O)CNC(=O)[C@H](CCC(=O)O)NC(=O)C(C)(C)NC(=O)[C@@H](N)Cc1c[nH]cn1)[C@@H](C)O)[C@@H](C)O)[C@@H](C)O)[C@@H](C)CC)C(=O)N[C@@H](CC(N)=O)C(=O)N[C@@H](Cc1c[nH]c2ccccc12)C(=O)N[C@@H](CC(C)C)C(=O)N[C@@H](CCCCN)C(=O)N[C@@H](CO)C(=O)N[C@@H](Cc1ccc(O)cc1)C(=O)N[C@@H](CCCCN)C(=O)N[C@H](C(=O)N[C@H](C(=O)N[C@@H](CC(=O)O)C(=O)O)[C@@H](C)O)[C@@H](C)CC
B5: Compound 35 (peptide)
peptide: H-H[Aib]EGTFTSELATILDEQAARDFINWLKAHKITD-OH
SMILES: CC[C@H](C)[C@H](NC(=O)[C@H](Cc1ccccc1)NC(=O)[C@H](CC(=O)O)NC(=O)[C@H](CCCNC(=N)N)NC(=O)[C@H](C)NC(=O)[C@H](C)NC(=O)[C@H](CCC(N)=O)NC(=O)[C@H](CCC(=O)O)NC(=O)[C@H](CC(=O)O)NC(=O)[C@H](CC(C)C)NC(=O)[C@@H](NC(=O)[C@@H](NC(=O)[C@H](C)NC(=O)[C@H](CC(C)C)NC(=O)[C@H](CCC(=O)O)NC(=O)[C@H](CO)NC(=O)[C@@H](NC(=O)[C@H](Cc1ccccc1)NC(=O)[C@@H](NC(=O)CNC(=O)[C@H](CCC(=O)O)NC(=O)C(C)(C)NC(=O)[C@@H](N)Cc1c[nH]cn1)[C@@H](C)O)[C@@H](C)O)[C@@H](C)O)[C@@H](C)CC)C(=O)N[C@@H](CC(N)=O)C(=O)N[C@@H](Cc1c[nH]c2ccccc12)C(=O)N[C@@H](CC(C)C)C(=O)N[C@@H](CCCCN)C(=O)N[C@@H](C)C(=O)N[C@@H](Cc1c[nH]cn1)C(=O)N[C@@H](CCCCN)C(=O)N[C@H](C(=O)N[C@H](C(=O)N[C@@H](CC(=O)O)C(=O)O)[C@@H](C)O)[C@@H](C)CC
B6: Compound 37 (peptide)
peptide: H-H[Aib]EGTFTSELATILDEQAARDFINWLKEQKITD-OH
SMILES: CC[C@H](C)[C@H](NC(=O)[C@H](Cc1ccccc1)NC(=O)[C@H](CC(=O)O)NC(=O)[C@H](CCCNC(=N)N)NC(=O)[C@H](C)NC(=O)[C@H](C)NC(=O)[C@H](CCC(N)=O)NC(=O)[C@H](CCC(=O)O)NC(=O)[C@H](CC(=O)O)NC(=O)[C@H](CC(C)C)NC(=O)[C@@H](NC(=O)[C@@H](NC(=O)[C@H](C)NC(=O)[C@H](CC(C)C)NC(=O)[C@H](CCC(=O)O)NC(=O)[C@H](CO)NC(=O)[C@@H](NC(=O)[C@H](Cc1ccccc1)NC(=O)[C@@H](NC(=O)CNC(=O)[C@H](CCC(=O)O)NC(=O)C(C)(C)NC(=O)[C@@H](N)Cc1c[nH]cn1)[C@@H](C)O)[C@@H](C)O)[C@@H](C)O)[C@@H](C)CC)C(=O)N[C@@H](CC(N)=O)C(=O)N[C@@H](Cc1c[nH]c2ccccc12)C(=O)N[C@@H](CC(C)C)C(=O)N[C@@H](CCCCN)C(=O)N[C@@H](CCC(=O)O)C(=O)N[C@@H](CCC(N)=O)C(=O)N[C@@H](CCCCN)C(=O)N[C@H](C(=O)N[C@H](C(=O)N[C@@H](CC(=O)O)C(=O)O)[C@@H](C)O)[C@@H](C)CC
B7: Compound 39 (peptide)
peptide: H-H[Aib]EGTFSSELSTILEEQASREFIAWLIAHKITE-OH
SMILES: CC[C@H](C)[C@H](NC(=O)[C@H](CC(C)C)NC(=O)[C@H](Cc1c[nH]c2ccccc12)NC(=O)[C@H](C)NC(=O)[C@@H](NC(=O)[C@H](Cc1ccccc1)NC(=O)[C@H](CCC(=O)O)NC(=O)[C@H](CCCNC(=N)N)NC(=O)[C@H](CO)NC(=O)[C@H](C)NC(=O)[C@H](CCC(N)=O)NC(=O)[C@H](CCC(=O)O)NC(=O)[C@H](CCC(=O)O)NC(=O)[C@H](CC(C)C)NC(=O)[C@@H](NC(=O)[C@@H](NC(=O)[C@H](CO)NC(=O)[C@H](CC(C)C)NC(=O)[C@H](CCC(=O)O)NC(=O)[C@H](CO)NC(=O)[C@H](CO)NC(=O)[C@H](Cc1ccccc1)NC(=O)[C@@H](NC(=O)CNC(=O)[C@H](CCC(=O)O)NC(=O)C(C)(C)NC(=O)[C@@H](N)Cc1c[nH]cn1)[C@@H](C)O)[C@@H](C)O)[C@@H](C)CC)[C@@H](C)CC)C(=O)N[C@@H](C)C(=O)N[C@@H](Cc1c[nH]cn1)C(=O)N[C@@H](CCCCN)C(=O)N[C@H](C(=O)N[C@H](C(=O)N[C@@H](CCC(=O)O)C(=O)O)[C@@H](C)O)[C@@H](C)CC

Square brackets hold non-standard residues; d marks the D form. Aib = CC(C)(N)C(=O)O

The first experiment deals with human glucagon-like peptide 1 receptor (GLP-1R) (human, UniProt P43220 24-463). The experiment can be described thus: cell-based or functional assay.
As for B1, the “EC50 GLP-1 (nM); cAMP AlphaScreen, HEK293 cells expressing human GLP-1R” value (shortened to “EC50 GLP-1 (nM); cAMP AlphaScreen”) worked out at 1.4 nM.
B2: the “EC50 GLP-1 (nM); cAMP AlphaScreen” value is 0.078 nM.
Still for that read-out and setting: the same measure for B3: 0.008 nM; for B4: 0.007 nM.
With B5, the “EC50 GLP-1 (nM); cAMP AlphaScreen” value stood at 0.006 nM.
Still for that read-out and setting: for B6 the value was 0.007 nM; for B7, 0.03 nM.

For a further experiment, the target named is T1, human GLP-2 receptor (hGLP2-R). The experiment can be described thus: cell-based or functional assay.
As to B1, the “EC50 GLP-2 (nM); cAMP AlphaScreen, HEK293 cells expressing human GLP-2R” value (shortened to “EC50 GLP-2 (nM); cAMP AlphaScreen”) came to 0.05 nM.
In the case of B2, the “EC50 GLP-2 (nM); cAMP AlphaScreen” value turned out to be 0.026 nM.
Same read-out and setting: for B3 the value was 0.043 nM.
Still for that read-out and setting: the same measure for B4: 0.11 nM.
The same measure, in the same setting: for B5 the value was 0.048 nM.
For B6, the “EC50 GLP-2 (nM); cAMP AlphaScreen” value turned out to be 0.16 nM.
Still for that read-out and setting: the same measure for B7: 0.96 nM.
